Assay results taken from US20180125988.

Tests used:
[1] = target: T1, AC1254 (CCD1-BSRS1-AE713)
T1 chain: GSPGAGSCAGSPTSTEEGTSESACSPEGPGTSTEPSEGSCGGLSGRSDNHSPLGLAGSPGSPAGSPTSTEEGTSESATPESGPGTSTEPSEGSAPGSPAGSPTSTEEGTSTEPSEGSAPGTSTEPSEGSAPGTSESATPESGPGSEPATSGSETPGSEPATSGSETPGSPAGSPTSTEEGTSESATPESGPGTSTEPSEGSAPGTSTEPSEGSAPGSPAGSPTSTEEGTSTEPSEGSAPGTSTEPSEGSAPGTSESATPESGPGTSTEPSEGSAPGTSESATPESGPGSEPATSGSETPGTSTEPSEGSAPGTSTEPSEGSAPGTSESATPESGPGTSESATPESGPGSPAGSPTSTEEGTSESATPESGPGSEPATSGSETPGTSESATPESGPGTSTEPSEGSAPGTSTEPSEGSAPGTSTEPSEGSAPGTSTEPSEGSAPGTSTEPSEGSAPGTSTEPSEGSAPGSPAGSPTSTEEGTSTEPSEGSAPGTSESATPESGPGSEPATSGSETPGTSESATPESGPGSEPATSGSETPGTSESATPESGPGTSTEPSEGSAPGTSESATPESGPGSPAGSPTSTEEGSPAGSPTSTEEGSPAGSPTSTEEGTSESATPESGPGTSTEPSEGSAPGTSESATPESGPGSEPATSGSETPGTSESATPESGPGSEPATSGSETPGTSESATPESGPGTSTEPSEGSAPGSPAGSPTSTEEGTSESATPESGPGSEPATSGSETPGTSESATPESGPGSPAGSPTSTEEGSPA

[2] = target: T2, XTEN_AE864
T2 chain: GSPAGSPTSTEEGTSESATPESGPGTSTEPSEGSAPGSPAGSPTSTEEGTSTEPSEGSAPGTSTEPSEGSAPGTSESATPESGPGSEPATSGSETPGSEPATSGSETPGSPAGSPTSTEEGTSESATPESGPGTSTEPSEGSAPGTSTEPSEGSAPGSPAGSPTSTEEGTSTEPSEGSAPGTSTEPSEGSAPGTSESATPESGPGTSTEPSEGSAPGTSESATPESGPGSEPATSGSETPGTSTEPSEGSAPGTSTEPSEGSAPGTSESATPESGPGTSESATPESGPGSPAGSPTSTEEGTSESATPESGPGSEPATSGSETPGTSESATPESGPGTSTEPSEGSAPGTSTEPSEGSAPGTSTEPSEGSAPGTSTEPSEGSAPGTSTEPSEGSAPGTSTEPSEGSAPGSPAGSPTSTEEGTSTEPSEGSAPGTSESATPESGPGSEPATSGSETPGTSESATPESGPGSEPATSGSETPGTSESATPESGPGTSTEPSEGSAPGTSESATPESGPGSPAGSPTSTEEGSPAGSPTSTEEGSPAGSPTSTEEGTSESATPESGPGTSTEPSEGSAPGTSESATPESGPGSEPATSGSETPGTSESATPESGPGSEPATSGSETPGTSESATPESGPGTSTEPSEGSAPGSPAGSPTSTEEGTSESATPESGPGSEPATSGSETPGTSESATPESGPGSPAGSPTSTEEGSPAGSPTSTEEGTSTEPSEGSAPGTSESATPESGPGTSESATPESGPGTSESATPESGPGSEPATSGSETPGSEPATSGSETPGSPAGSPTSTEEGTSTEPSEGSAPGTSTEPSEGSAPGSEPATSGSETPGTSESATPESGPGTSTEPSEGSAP

B1: recombinant human matriptase (protein)
chain: VVGGTDADEGEWPWQVSLHALGQGHICGASLISPNWLVSAAHCYIDDRGFRYSDPTQWTAFLGLHDQSQRSAPGVQERRLKRIISHPFFNDFTFDYDIALLELEKPAEYSSMVRPICLPDASHVFPAGKAIWVTGWGHTQYGGTGALILQKGEIRVINQTTCENLLPQQITPRMMCVGFLSGGVDSCQGDSGGPLSSVEADGRIFQAGVVSWGDGCAQRNKPGVYTRLPLFRDWIKENTGV
With B1 the “proteolytic cleavage at the PCM (SDS-PAGE, C4 RP-HPLC); enzyme:substrate 1:12.5, 2 h, 37 C” value [1] was “all proteases tested here cleaved the construct as intended, with varying degree of catalytic efficiency”.

B2: recombinant mouse MMP-9 (protein)
chain: FQTFKGLKWDHHNITYWIQNYSEDLPRDMIDDAFARAFAVWGEVAPLTFTRVYGPEADIVIQFGVAEHGDGYPFDGKDGLLAHAFPPGAGVQGDAHFDDDELWSLGKGVVIPTYYGNSNGAPCHFPFTFEGRSYSACTTDGRNDGTPWCSTTADYDKDGKFGFCPSERLYTEHGNGEGKPCVFPFIFEGRSYSACTTKGRSDGYRWCATTANYDQDKLYGFCPTRVDATVVGGNSAGELCVFPFVFLGKQYSSCTSDGRRDGRLWCATTSNFDTDKKWGFCPDQGYSLFLVAAHEFGHALGLDHSSVPEALMYPLYSYLEGFPLNKDDIDGIQYLYGRGSKPDPRPPATTTTEPQPTAPPTMCPTIPPTAYPTVGPTVGPTGAPSPGPTSSPSPGPTGAPSPGPTAPPTAGSSEASTESLSPADNPCNVDVFDAIAEIQGALHFFKDGWYWKFLNHRGSPLQGPFLTARTWPALPATLDSAFEDPQTKRVFFFSGRQMWVYTGKTVLGPRSLDKLGLGPEVTHVSGLLPRRLGKALLFSKGRVWRFDLKSQKVDPQSVIRVDKEFSGVPWNSHDIFQYQDKAYFCHGKFFWRVSFQNEVNKVDHEVNQVDDVGYVTYDLLQCP
In the case of B2, the “proteolytic cleavage at the PCM (SDS-PAGE, C4 RP-HPLC); enzyme:substrate 1:6711, 2 h, 37 C” value [1] is reported as “all proteases tested here cleaved the construct as intended, with varying degree of catalytic efficiency”.

B3: human neutrophil elastase (protein)
chain: IVGGRRARPHAWPFMVSLQLRGGHFCGATLIAPNFVMSAAHCVANVNVRAVRVVLGAHNLSRREPTRQVFAVQRIFENGYDPVNLLNDIVILQLNGSATINANVQVAQLPAQGRRLGNGVQCLAMGWGLLGRNRGIASVLQELNVTVVTSLCRRSNVCTLVRGRQAGVCFGDSGSPLVCNGLIHGIASFVRGGCASGLYPDAFAPVAQFVNWIDSIIQ
With B3 the “proteolytic degradation (SDS-PAGE), elastase:XTEN 1:100, 2 h, 37 C” value [2] was “XTEN_AE864 was completely digested by neutrophil elastase at the 1:100 molar ratio” and the “proteolytic degradation (SDS-PAGE), elastase:XTEN 1:1000, 2 h, 37 C” value [2] was “Partial degradation was observed for XTEN_AE864 when incubating with neutrophil elastase at the 1:1000 molar ratio”.

B4: recombinant human MMP-7 (protein)
chain: YSLFPNSPKWTSKVVTYRIVSYTRDLPHITVDRLVSKALNMWGKEIPLHFRKVVWGTADIMIGFARGAHGDSYPFDGPGNTLAHAFAPGTGLGGDAHFDEDERWTDGSSLGINFLYAATHELGHSLGMGHSSDPNAVMYPTYGNGDPQNFKLSQDDIKGIQKLYGKRSNSRKK
With B4 the “proteolytic cleavage at the PCM (SDS-PAGE, C4 RP-HPLC); enzyme:substrate 1:200, 2 h, 37 C” value [1] was “all proteases tested here cleaved the construct as intended, with varying degree of catalytic efficiency”.
